By IC50 is commonly meant the midpoint of a concentration-inhibition curve. The low end stands for higher potency, the high end for lower potency.

Three substances from US20090252748A1 can be followed below.

Test [1] addresses human Sp35 protein expressed on transfected cells (human) (UniProt Q96FE5). Nature of the test: FACS, live human LINGO-1 transfected 293 cells, PE-labelled secondary antibody without primary antibody, FL2-H; Cell only 5.81 [panel 2nd Ab only]. (Flow cytometry measures light scatter and fluorescence of single cells or particles in a stream.)
For test [2] the target is unchanged. Nature of the test: FACS, live human LINGO-1 transfected 293 cells, PE-labelled secondary antibody without primary antibody, FL2-H; Cell only 0.94 [panel 2nd Ab only].
Test [3] has the same target. The test is described as follows: FACS, live human LINGO-1 transfected 293 cells, PE-labelled secondary antibody without primary antibody, FL2-H; Cell only 4.71 [panel 2nd Ab only].
The target is the same in test [4]. Nature of the test: FACS, live human LINGO-1 transfected 293 cells, PE-labelled secondary antibody without primary antibody, FL2-H; Cell only 4.47 [panel 2nd Ab only].
A further test deals with CD32. Nature of the test: CD32 binding assay, format not described.

Sequence of human Sp35 protein expressed on transfected cells (human) (Q96FE5 40-620): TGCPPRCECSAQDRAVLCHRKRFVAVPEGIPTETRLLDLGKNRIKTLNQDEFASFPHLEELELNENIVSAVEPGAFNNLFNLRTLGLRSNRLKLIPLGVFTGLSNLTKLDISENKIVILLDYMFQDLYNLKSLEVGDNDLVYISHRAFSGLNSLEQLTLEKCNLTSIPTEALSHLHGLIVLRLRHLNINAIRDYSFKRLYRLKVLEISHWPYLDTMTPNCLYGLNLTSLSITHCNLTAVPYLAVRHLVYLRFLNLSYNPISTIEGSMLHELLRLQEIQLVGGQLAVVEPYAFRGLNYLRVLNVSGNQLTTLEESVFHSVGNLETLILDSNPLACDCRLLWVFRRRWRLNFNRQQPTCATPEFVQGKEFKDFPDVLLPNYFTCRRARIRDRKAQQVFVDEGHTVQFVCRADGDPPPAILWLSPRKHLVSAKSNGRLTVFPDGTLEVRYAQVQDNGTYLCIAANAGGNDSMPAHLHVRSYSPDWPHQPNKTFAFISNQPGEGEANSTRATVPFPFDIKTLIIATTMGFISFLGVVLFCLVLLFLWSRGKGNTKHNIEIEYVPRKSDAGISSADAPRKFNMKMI

Take “2nd Ab only (PE-labelled secondary antibody without primary antibody)”: the (FL2-H) Mean in test [1] was determined as 8.78. The substance also showed a number over the marker gate of the FL2-H histogram in test [2] of 5.52. For the same substance, in test [3], the (FL2-H) Median stood at 6.76. In test [4], this substance yielded a (FL2-H) Geom. Mean of 6.6.
In turn, Li33Ig2 agly (antibody) returned an IC50 with CD32 of 25 µg/mL.
On the same count and under the same terms, next, Li33Ig2 wt (antibody): 4.3 µg/mL.
